Kd data for three substances are collected here from article PMC5809731.

Assay [1] concerns the target Flag-tagged human cyclophilin A (human) (UniProt P62937). As to the kind of experiment: dual-focus fluorescence correlation spectroscopy (2fFCS).
Assay [2] has the same target. As to the kind of experiment: dual-focus fluorescence correlation spectroscopy (2fFCS); 2 nM Alexa 488-labelled B30.2 or CypA titrated with unlabelled capsid surrogate; 7°C; hydrodynamic radius against concentration, viscosity corrected with CypA as reference; Kd per monomeric capsid equivalent.
Assay [3] addresses B30.2 domain of rhesus TRIM5α (rhesus macaque) (UniProt Q0PF16). The assay is described as above.
Assay [4] has as its target B30.2 domain of human TRIM5α (human) (UniProt Q9C035). The description is as above.

Chain of Flag-tagged human cyclophilin A (human) (P62937 whole entry): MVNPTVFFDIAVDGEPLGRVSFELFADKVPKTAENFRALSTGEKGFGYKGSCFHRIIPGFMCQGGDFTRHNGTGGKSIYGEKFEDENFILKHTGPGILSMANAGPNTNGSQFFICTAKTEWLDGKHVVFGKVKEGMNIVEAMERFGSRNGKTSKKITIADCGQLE
Chain of B30.2 domain of human TRIM5α (human) (Q9C035 286-493): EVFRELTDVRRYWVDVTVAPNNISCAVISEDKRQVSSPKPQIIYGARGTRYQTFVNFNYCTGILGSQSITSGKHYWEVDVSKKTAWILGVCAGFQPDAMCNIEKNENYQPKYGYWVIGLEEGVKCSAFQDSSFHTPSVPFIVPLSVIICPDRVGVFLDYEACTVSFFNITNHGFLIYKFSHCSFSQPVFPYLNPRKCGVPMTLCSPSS
Chain of B30.2 domain of rhesus TRIM5α (rhesus macaque) (Q0PF16 other isoform, or with tags, fused parts or gaps): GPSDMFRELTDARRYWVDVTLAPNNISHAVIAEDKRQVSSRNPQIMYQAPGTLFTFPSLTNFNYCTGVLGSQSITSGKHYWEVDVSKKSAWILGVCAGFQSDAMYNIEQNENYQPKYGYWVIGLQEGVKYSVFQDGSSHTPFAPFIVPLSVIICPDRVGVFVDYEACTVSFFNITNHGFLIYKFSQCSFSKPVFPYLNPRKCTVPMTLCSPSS

Take “wild-type, full-length HIV-1 capsid protein (from UniProt P12493 133-363) (natural protein; other documents disagree on this pair)”: the Kd (in general, the free concentration of one partner at which half of the binding sites on the other are occupied at equilibrium, for simple one-to-one binding) in assay [1] was found to be 26.5 µM.
Consider “disulfide-linked A14C E45C W184A M185A HIV-1 capsid hexamer (complex)”, for which the Kd in assay [2] was 28.9 µM; in assay [3], 600 µM; in assay [4] it was 540 µM.
The matching figures for “TMEA-cross-linked R82C E180D V181A HIV-1 capsid trimer (complex)”: 17.8 µM, 440 µM and 840 µM.
